Experimental data from publication doi:10.1101/2024.05.21.594841 (bioRxiv, 2024).

Tests used:
Assay in all cases: split reporter
Kre5p = target: T1, Kre5p (S. cerevisiae, UniProt P22023 18-1365)
T1 sequence: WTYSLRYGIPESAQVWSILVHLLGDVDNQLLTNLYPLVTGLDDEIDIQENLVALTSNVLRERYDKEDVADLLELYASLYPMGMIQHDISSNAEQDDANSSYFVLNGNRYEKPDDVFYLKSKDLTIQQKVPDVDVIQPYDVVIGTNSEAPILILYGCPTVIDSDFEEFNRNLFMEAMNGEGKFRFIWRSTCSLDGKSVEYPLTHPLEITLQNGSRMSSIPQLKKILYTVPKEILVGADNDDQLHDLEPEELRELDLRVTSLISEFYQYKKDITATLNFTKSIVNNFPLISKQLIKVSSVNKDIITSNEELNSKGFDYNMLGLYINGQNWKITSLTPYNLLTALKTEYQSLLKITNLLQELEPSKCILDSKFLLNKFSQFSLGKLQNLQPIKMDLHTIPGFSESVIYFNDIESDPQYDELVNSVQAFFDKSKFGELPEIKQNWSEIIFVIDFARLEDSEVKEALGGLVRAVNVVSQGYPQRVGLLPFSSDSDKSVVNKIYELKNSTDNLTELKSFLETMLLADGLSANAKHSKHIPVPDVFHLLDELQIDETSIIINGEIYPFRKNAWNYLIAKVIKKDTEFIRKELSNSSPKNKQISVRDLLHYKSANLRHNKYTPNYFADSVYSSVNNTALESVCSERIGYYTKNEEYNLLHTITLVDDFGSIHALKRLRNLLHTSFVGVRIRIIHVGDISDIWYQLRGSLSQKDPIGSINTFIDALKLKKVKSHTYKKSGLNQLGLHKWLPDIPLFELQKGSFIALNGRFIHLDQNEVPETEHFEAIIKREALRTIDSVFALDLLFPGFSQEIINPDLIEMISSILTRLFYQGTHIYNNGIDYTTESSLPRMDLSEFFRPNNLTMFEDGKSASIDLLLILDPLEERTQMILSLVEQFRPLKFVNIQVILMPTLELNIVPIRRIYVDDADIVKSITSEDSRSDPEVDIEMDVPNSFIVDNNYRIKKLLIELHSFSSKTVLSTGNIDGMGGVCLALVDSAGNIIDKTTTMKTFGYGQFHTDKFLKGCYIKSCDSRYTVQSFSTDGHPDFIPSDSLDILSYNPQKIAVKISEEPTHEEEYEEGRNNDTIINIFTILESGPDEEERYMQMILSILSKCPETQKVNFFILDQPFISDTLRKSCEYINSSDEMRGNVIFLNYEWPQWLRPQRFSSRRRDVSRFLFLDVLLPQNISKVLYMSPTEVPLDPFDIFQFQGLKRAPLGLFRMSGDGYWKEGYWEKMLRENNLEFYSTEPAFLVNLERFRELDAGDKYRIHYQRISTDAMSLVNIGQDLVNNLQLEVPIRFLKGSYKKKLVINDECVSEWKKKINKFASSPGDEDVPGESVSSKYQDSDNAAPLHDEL

Mpd1p = target: T2, Mpd1p (S. cerevisiae, UniProt Q12404 22-318)
T2 sequence: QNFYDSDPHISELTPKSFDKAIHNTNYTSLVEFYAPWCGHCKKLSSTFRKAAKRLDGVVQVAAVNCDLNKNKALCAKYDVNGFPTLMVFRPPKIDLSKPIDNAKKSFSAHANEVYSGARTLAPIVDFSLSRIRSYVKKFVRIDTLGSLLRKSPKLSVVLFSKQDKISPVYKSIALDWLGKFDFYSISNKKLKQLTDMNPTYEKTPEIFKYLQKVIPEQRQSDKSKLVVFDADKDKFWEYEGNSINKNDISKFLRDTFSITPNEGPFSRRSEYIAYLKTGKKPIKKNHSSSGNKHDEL

Eug1p = target: T3, Eug1p (S. cerevisiae, UniProt P32474 30-517)
T3 sequence: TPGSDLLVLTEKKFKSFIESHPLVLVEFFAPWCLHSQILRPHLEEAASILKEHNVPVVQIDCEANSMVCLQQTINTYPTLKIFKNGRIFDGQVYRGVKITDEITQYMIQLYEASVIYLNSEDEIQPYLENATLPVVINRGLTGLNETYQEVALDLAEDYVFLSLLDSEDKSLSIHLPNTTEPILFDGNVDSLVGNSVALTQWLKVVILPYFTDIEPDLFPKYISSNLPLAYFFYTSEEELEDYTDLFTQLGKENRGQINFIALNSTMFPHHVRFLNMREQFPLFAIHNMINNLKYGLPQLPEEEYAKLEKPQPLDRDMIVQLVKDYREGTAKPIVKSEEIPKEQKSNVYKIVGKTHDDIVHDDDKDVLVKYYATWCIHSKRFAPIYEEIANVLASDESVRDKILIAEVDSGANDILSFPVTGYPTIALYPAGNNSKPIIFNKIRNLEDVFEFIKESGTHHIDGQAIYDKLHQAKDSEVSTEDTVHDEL

B1: Lhs1p (natural protein)
chain: AVLGVDYGQQNIKAIVVSPQAPLELVLTPEAKRKEISGLSIKRLPGYGKDDPNGIERIYGSAVGSLATRFPQNTLLHLKPLLGKSLEDETTVTLYSKQHPGLEMVSTNRSTIAFLVDNVEYPLEELVAMNVQEIANRANSLLKDRDARTEDFVNKMSFTIPDFFDQHQRKALLDASSITTGIEETYLVSEGMSVAVNFVLKQRQFPPGEQQHYIVYDMGSGSIKASMFSILQPEDTTQPVTIEFEGYGYNPHLGGAKFTMDIGSLIENKFLETHPAIRTDELHANPKALAKINQAAEKAKLILSANSEASINIESLINDIDFRTSITRQEFEEFIADSLLDIVKPINDAVTKQFGGYGTNLPEINGVILAGGSSRIPIVQDQLIKLVSEEKVLRNVNADESAVNGVVMRGIKLSNSFKTKPLNVVDRSVNTYSFKLSNESELYDVFTRGSAYPNKTSILTNTTDSIPNNFTIDLFENGKLFETITVNSGAIKNSYSSDKCSSGVAYNITFDLSSDRLFSIQEVNCICQSENDIGNSKQIKNKGSRLAFTSEDVEIKRLSPSERSRLHEHIKLLDKQDKERFQFQENLNVLESNLYDARNLLMDDEVMQNGPKSQVEELSEMVKVYLDWLEDASFDTDPEDIVSRIREIGILKKKIELYMDSAKEPLNSQQFKGMLEEGHKLLQAIETHKNTVEEFLSQFETEFADTIDNVREEFKKIKQPAYVSKALSTWEETLTSFKNSISEIEKFLAKNLFGEDLREHLFEIKLQFDMYRTKLEEKLRLIKSGDESRLNEIKKLHLRNFRLQKRKEEKLKRKLEQEKSRNNNETESTVINSADDKTTIVNDKTTESNPSSEEDILHDEL
normalized interacting score (Kre5p): > 40%
normalized interacting score (Mpd1p): 18%
normalized interacting score (Eug1p): > 40%
